Reference: publication PMC11480844

B1: H2-Kb / E8 (parent)
chain 1: GDSVTQTEGLVTVTEGLPVKLNCTYQTTYLTIAFFWYVQYLNEAPQVLLKSSTDNKRTEHQGFHATLHKSSSSFHLQKSSAQLSDSALYYCALNTNTGKLTFGDGTVLTVKP
chain 2: EAAVTQSPRNKVAVTGGKVTLSCNQTNNHNNMYWYRQDTGHGLRLIHYSYGAGSTEKGDIPDGYKASRPSQENFSLILELATPSQTSVYFCASGDWGAGTGQLYFGEGSKLTVL
chain 3: not shown
chain 4: IQKTPQIQVYSRHPPENGKPNILNCYVTQFHPPHIEIQMLKNGKKIPKVEMSDMSFSKDWSFYILAHTEFTPTETDTYACRVKHDSMAEPKTVYWDRDM
chain 5: SIINFEKL
B2: H2-Kb / B13 (parent)
chain 1: AQKVTQTQTSISVMEKTTVTMDCVYETQDSSYFLFWYKQTASGEIVFLIRQDSYKKENATVGHYSLNFQKPKSSIGLIITATQIEDSAVYFCAMREGTGGYKVVFGSGTRLLVSP
chain 2: EAAVTQSPRNKVTVTGGNVTLSCRQTNSHNYMYWYRQDTGHGLRLIHYSYGAGNLQIGDVPDGYKATRTTQEDFFLLLELASPSQTSLYFCASSDGTGHEQYFGPGTRLTVL
chain 3: not shown
chain 4: B1 chain 4
chain 5: SIINFEKL

Variants of: B1
Experiment: % of reporter cells activated (NFAT-GFP), raw
Details: with E8; scale: % of reporter cells activated
Further: test concentration or dose not given here.

Ratio to parent of substitutions, site by site:
chain 5 F5: R 0.77 | E 0.539 | A 1.63 | L 0.68
chain 5 L8: R 0.331 | E 0.264
chain 5 K7: T 0.223 | S 0.491 | I 0.132 | E 0.415 | L 0.119
chain 5 E6: G 0.193 | T 0.0257
chain 5 N4: P 2.41 | S 0.0377 | C 0.0617 | L 0.0142 | E 0.0223 | K 0.0265
chain 5 I3: Q 0.475 | H 1.57
chain 5 I2: G 0.418 | V 2.6 | M 0.834 | H 0.943
chain 5 S1: D 1.87 | M 0.0169 | I 0.0565

Variants of: B2
Experiment: % of reporter cells activated (NFAT-GFP), raw
Details: with B13; scale: % of reporter cells activated

Ratio to parent, by site and new letter:
chain 5 L8: F 0.189 | T 0.331 | W 0.423 | V 0.393 | Y 0.812 | C 3.32 | G 1.21 | K 0.45 | I 0.992 | M 0.471 | E 2.13 | A 0.227 | N 3 | D 2.32 | S 2.06 | R 1.98 | P 2.29 | H 0.954 | Q 0.247
chain 5 K7: F 1.21 | M 4.28 | T 1.03 | W 1.27 | V 2.07 | R 0.987 | D 0.108 | Y 0.195 | P 0.0545 | S 1.02 | G 0.471 | C 1.38 | L 3.14 | E 0.113 | H 0.431 | N 1.14 | A 0.722 | Q 0.887 | I 1.32
chain 5 I3: D 0.0646 | R 1.96 | M 5.23 | F 0.122 | E 4.51 | A 4.66 | P 5.54 | H 1.64 | N 1.58 | S 1.98 | G 1.07 | L 2.17 | C 5.34 | V 2.29 | T 1.56 | W 0.293 | Y 0.117 | Q 4.85 | K 0.422
chain 5 E6: R 0.024 | W 0.0431 | V 0.038 | Y 0.0507 | S 0.0411 | T 0.0399
chain 5 S1: A 0.835 | H 0.0963 | T 0.544 | Y 0.11 | Q 0.392 | N 0.0976 | E 0.113 | C 0.0621 | F 0.0232 | V 0.857 | R 6.17 | L 0.112 | M 1.15 | G 0.236 | P 0.139 | D 0.113 | K 0.64 | W 1.35 | I 0.381
chain 5 N4: A 0.052 | Y 0.0196 | E 0.156 | K 0.0279 | H 0.038 | I 0.179 | Q 0.0444 | F 0.393 | D 0.0238 | S 0.0507 | V 0.0342 | L 0.0811 | M 0.0596 | P 0.0596 | C 0.0444 | R 0.104 | T 0.0378 | W 0.025 | G 0.101
chain 5 I2: D 0.523 | Q 0.243 | Y 2.07 | A 1.04 | M 0.411 | L 1.48 | N 0.347 | W 2.33 | H 1 | R 1.49 | C 1.49 | P 0.285 | S 0.848 | K 1.84 | V 1.98 | G 0.284 | T 1.09 | F 1.01 | E 0.75
chain 5 F5: V 0.331 | P 0.144 | T 0.195 | H 0.366 | S 0.0431 | R 0.0811 | W 0.0204 | A 0.131 | Y 0.712 | N 0.0634 | D 0.179 | M 0.316 | E 0.0684 | G 0.0418 | K 0.15 | Q 0.0482 | I 0.0887 | L 0.117 | C 0.132
